2 molecules from publication PMC2660430, “Identification of Proteins Targeted by the Thioredoxin Superfamily in Plasmodium falciparum” (PLoS Pathogens, 2009) can be followed below.

In the assay “PfSAHH (recombinant …)” the target is T1, PfSAHH (recombinant S-adenosyl-L-homocysteine hydrolase) (P. falciparum strain 3D7, UniProt P50250 1-479).
T1 construct: S-adenosyl-L-homocysteine hydrolase, P. falciparum strain 3D7, Swiss-Prot Q7K6A6, PlasmoDB PFE1050w; gene amplified from a gametocyte cDNA library with primers from the start codon (NcoI) to the last codon (XhoI); Amine-coupled to a CM5 chip and oxidized on the chip with 0.5 mM DTNB before each analyte; also called oxidized SAHH; source: E. coli BL 21 (pET28a), purified (Ni-NTA)
T1 sequence (P50250 whole entry): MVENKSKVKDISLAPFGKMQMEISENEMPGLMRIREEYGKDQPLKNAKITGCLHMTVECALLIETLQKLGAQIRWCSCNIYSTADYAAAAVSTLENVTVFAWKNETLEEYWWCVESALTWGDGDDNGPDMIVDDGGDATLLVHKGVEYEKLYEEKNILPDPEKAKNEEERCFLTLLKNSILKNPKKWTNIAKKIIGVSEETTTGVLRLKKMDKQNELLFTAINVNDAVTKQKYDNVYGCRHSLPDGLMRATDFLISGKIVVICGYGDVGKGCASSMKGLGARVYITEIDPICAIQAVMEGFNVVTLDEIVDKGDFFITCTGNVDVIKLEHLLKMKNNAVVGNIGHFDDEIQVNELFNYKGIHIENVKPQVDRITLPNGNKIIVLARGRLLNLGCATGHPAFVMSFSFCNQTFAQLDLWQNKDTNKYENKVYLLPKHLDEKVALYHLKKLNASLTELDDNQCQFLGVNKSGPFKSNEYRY
The assay is described as follows: SPR; BIAcore X; SAHH amine-coupled to CM5 chip, oxidized with 0.5 mM DTNB; analyte 10 µM in HBS buffer (10 mM HEPES, 150 mM NaCl, 3.4 mM EDTA, 0.005% Nonidet P-40, pH 7.4), 25°C, 10 µl/min; elution with 2 mM DTT; FC2-FC1. The following applies: both partners purified.

In assay [1] the target is T2, PfOAT (recombinant ornithine aminotransferase) (P. falciparum strain 3D7, UniProt Q6LFH8 1-414).
T2 construct: Ornithine aminotransferase, P. falciparum strain 3D7, Swiss-Prot Q6LFH8, PlasmoDB PFF0435w; gene amplified from a gametocyte cDNA library with primers from the start codon (NcoI) to the last codon (XhoI); Amine-coupled to a CM5 chip and oxidized on the chip with 0.5 mM DTNB before each analyte; source: E. coli BL 21 (pET28a), purified (Ni-NTA)
T2 sequence (looked up): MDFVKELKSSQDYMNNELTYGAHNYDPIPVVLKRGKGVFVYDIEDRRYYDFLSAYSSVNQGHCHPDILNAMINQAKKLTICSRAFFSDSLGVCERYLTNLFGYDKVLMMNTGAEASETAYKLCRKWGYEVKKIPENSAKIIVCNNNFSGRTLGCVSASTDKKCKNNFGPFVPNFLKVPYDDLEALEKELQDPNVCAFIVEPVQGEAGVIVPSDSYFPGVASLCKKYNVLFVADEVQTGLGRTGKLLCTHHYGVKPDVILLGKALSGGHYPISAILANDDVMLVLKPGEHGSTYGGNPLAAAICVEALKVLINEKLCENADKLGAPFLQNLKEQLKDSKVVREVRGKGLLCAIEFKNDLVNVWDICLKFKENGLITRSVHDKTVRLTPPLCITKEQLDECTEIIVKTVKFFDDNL
Put plainly: SPR; BIAcore X; OAT amine-coupled to CM5 chip, oxidized with 0.5 mM DTNB; analyte 10 µM in HBS buffer (10 mM HEPES, 150 mM NaCl, 3.4 mM EDTA, 0.005% Nonidet P-40, pH 7.4), 25°C, 10 µl/min; elution with 2 mM DTT; FC2-FC1. To be noted: both partners purified.

B1: Plrx (wild type plasmoredoxin, recombinant) (natural protein, P. falciparum, UniProt Q8I224 1-179, looked up)
chain: MACQVDNPPKTYPNDKTAEYEKYANYMNYLYYYQNNELKKIDSSYFKDKYLGLFFGASWCKYCVTFIDSLNIFKKNFPNVEIIYIPFDRTYQEYQSFLKNTNFYALPFDNYLYICKKYQIKNLPSFMLITPNNNILVKDAAQLIKTDEYINNLKSLIKNYIIHPKTFQFNNRFFDLFRN
notes: Plasmoredoxin (Plrx), P. falciparum, Swiss-Prot Q8I224, PlasmoDB PFC0166w; also called wild type Plrx; PfPlrx; source: E. coli M15 (pQE30), purified (Ni-NTA)
With B1, the binding result with PfSAHH (recombinant …) is recorded as “binds”.

B2: PfTrx1^C33S (natural protein)
chain: MVKIVTSQAEFDSIISQNELVIVDFFAEWCGPSKRIAPFYEECSKTYTKMVFIKVDVDEVSEVTEKENITSMPTFKVYKNGSSVDTLLGANDSALKQLIEKYAA
notes: Thioredoxin 1 (PfTrx1), P. falciparum, PlasmoDB PF14_0545; Lacks the resolving cysteine; traps targets as a mixed disulfide through Cys 30; also called Trx^C33S; TrxC33S; source: E. coli M15 (pQE30), purified (Ni-NTA)
With B2, the binding result (with PfSAHH (recombinant …); in assay [1]) was “binds” in each case.
